Source: PMC4746669, “Attenuation of ligand-induced activation of angiotensin II type 1 receptor signaling by the type 2 receptor via protein kinase C” (Scientific Reports, 2016)

How the values were obtained:
[1] = molecular target: T1, FLAG-AT2R-CFP (angiotensin II type 2 receptor) (human, UniProt P50052 1-363); assay: co-IP; 293T cells, with or without AII (Suppl. Fig. S3); details not shown; conditions: partners not purified
T1 construct: Human angiotensin II type 2 receptor (AT2R); cDNA by RT-PCR from human umbilical vein endothelial cells; printed primers run from the codon after the initial methionine to the last codon; FLAG tag inserted after the initial methionine; subcloned EcoRI-NotI into pCXN2-CFPC; also called CFP-tagged AT2R; source: HeLa cells, transfected (FuGENE HD), in lysate or in living cells; not shown: FLAG, …
T1 sequence (looked up): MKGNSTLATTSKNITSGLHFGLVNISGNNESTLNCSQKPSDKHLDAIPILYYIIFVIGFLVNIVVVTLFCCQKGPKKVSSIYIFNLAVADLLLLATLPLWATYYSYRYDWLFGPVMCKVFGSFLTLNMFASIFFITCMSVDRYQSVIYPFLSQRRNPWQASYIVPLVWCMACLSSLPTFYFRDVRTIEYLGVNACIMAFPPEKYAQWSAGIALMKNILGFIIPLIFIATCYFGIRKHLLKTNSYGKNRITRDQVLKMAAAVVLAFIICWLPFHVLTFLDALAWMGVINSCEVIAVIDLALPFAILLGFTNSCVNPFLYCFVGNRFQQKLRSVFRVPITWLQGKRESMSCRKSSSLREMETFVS

[2] = molecular target: T1, FLAG-AT2R-CFP (angiotensin II type 2 …); assay: co-IP; HeLa cells co-transfected with HA-AT1R-YFP and Flag-AT2R-CFP, serum starved, with or without losartan or PD123319 pre-treatment and AII stimulation; NP-40 lysis buffer (10 mM Tris-HCl pH 7.4, 150 mM NaCl, 5 mM EDTA, 0.5% NP-40, 10% glycerol); anti-FLAG antibody with protein A-Sepharose; blot with anti-HA; conditions: partners not purified

fold enhancement of the association by AII treatment (against no AII) [1]: 2.4 fold | fold enhancement of the association by AII treatment (against no AII) [2]: 1.6 fold
B1: HA-AT1R-YFP (angiotensin II type 1 receptor) (receptor, human, UniProt P30556 1-359, looked up)
chain: MILNSSTEDGIKRIQDDCPKAGRHNYIFVMIPTLYSIIFVVGIFGNSLVVIVIYFYMKLKTVASVFLLNLALADLCFLLTLPLWAVYTAMEYRWPFGNYLCKIASASVSFNLYASVFLLTCLSIDRYLAIVHPMKSRLRRTMLVAKVTCIIIWLLAGLASLPAIIHRNVFFIENTNITVCAFHYESQNSTLPIGLGLTKNILGFLFPFLIILTSYTLIWKALKKAYEIQKNKPRNDDIFKIIMAIVLFFFFSWIPHQIFTFLDVLIQLGIIRDCRIADIVDTAMPITICIAYFNNCLNPLFYGFLGKKFKRYFLQLLKYIPPKAKSHSNLSTKMSTLSYRPSDNVSSSTKKPAPCFEVE
notes: Human angiotensin II type 1 receptor (AT1R); cDNA by RT-PCR from human umbilical vein endothelial cells; printed primers run from the codon after the initial methionine to the last codon; HA tag inserted after the initial methionine; subcloned EcoRI-NotI into pCXN2-YFPC; The reverse primer also encodes a stretch behind the NotI site that is lost on subcloning EcoRI-NotI into pCXN2-YFPC; also …
